Molecular target: the molecule itself
Experiment: SEC; gel filtration of the purified protein, data not shown; native molecular mass of about 224000 Da

B1: human aldehyde dehydrogenase 1A3 (enzyme, UniProt P47895 1-512, looked up)
chain: MATANGAVENGQPDRKPPALPRPIRNLEVKFTKIFINNEWHESKSGKKFATCNPSTREQICEVEEGDKPDVDKAVEAAQVAFQRGSPWRRLDALSRGRLLHQLADLVERDRATLAALETMDTGKPFLHAFFIDLEGCIRTLRYFAGWADKIQGKTIPTDDNVVCFTRHEPIGVCGAITPWNFPLLMLVWKLAPALCCGNTMVLKPAEQTPLTALYLGSLIKEAGFPPGVVNIVPGFGPTVGAAISSHPQINKIAFTGSTEVGKLVKEAASRSNLKRVTLELGGKNPCIVCADADLDLAVECAHQGVFFNQGQCCTAASRVFVEEQVYSEFVRRSVEYAKKRPVGDPFDVKTEQGPQIDQKQFDKILELIESGKKEGAKLECGGSAMEDKGLFIKPTVFSEVTDNMRIAKEEIFGPVQPILKFKSIEEVIKRANSTDYGLTAAVFTKNLDKALKLASALESGTVWINCYNALYAQAPFGGFKMSGNGRELGEYALAEYTEVKTVTIKLGDKNP
notes: human ALDH1A3, full-length open reading frame amplified from cDNA of the mesenchymal glioma stem cell line 83 and cloned into pDEST17; predicted molecular weight 56108 Da; Crystallised after pre-incubation with 1 mM NAD+ and 1 mM all-trans retinoic acid; No removal of the His tag is described; In the crystal no density for the N-terminal portion and the last four residues; also called ALDH1A3; …
- stoichiometry N: 4
